B1: DLC1 (parent)
chain: HVTHWMGQPFNSDDRNTACHHGLV
B2: FADS1 (parent)
chain: LNFQIEHHLFPTMPRHNYHKVAPL

Variants of: B1
Experiment: protein stability index of a GFP-peptide fusion (GPS, HEK-293T) (PSI 1-6); higher = more stable
Details: c terminus: a fixed tail appended
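Note: lentivirally expressed fusions sorted by FACS into six bins by GFP to DsRed ratio, PSI derived from sequencing read proportions per bin multiplied by bin number.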

Variant | protein stability index
V24Y | 1.69
V24W | 2.09

Variants of: B2
Experiment: as above
Details: c terminus: a fixed tail appended

Variant | protein stability index
A22R | 1.99
A22G | 1.05
A22K | 1.89
A22F | 1.78
A22D | 1.92
A22H | 1.89
L9K | 1.36
L9T | 1.42
L9C | 1.72
L9R | 1.87
L9P | 1.5
L9D | 2.04
L9G | 2.83
H7P | 2.19
H7S | 1.81
H7T | 2.82
Y18I | 2.23
Y18E | 2.65
Q4P | 1.24
Q4R | 1.6
Q4E | 2.25
Q4G | 2.08
Q4C | 1.86
Q4Y | 3.01

Variant | protein stability index
Q4I | 3.5
I5H | 1.83
I5A | 1.83
I5E | 2.1
I5Y | 2.57
I5R | 2.27
I5P | 2.14
I5L | 2.35
I5K | 2.06
I5Q | 1.83
I5G | 2.01
I5C | 2.33
T12H | 1.46
T12L | 2.08
T12C | 2.74
T12Y | 2.5
T12G | 1.47
H8D | 2.14
H8Y | 2.57
H8F | 2.4
H8V | 1.5
H8R | 1.74
H8G | 1.58
H8S | 2.12

Variant | protein stability index
H8M | 2.14
H8K | 1.93
H8C | 2.41
H8T | 2.26
H8L | 2.44
M13A | 2.02
M13H | 2.04
M13F | 1.97
M13Y | 2.83
M13N | 1.91
M13L | 1.62
V21H | 1.92
V21Y | 1.94
V21G | 2.38
V21T | 2.23
V21P | 2.39
V21D | 2.41
P11A | 2.35
P11F | 2.77
P11I | 2.19
P11Q | 2.73
P11N | 2.27
P11G | 1.9
H16I | 2.46

Variant | protein stability index
H16S | 1.28
H16Y | 3.52
H16C | 3.19
H16D | 3.61
H16G | 1.24
H16N | 2.2
H16K | 1.22
H16E | 2.52
F10M | 1.37
F10H | 3.04
F10V | 1.05
F10Q | 1.92
F10N | 2.28
F10I | 2.97
F10K | 2.14
F10E | 1.24
F10S | 1.66
E6V | 3.6
E6M | 2.24
E6Q | 2.38
E6A | 2.54
E6F | 3.4
E6R | 2.07
E6K | 2.21

Variant | protein stability index
E6H | 2.31
E6N | 1.19
E6G | 1.77
E6S | 1.8
N2C | 1.98
N2M | 1.53
N2Y | 1.77
N2Q | 1.91
N2A | 2.02
N2W | 3.67
N2T | 2.76
N2D | 2.91
N2G | 1.24
N2K | 2.28
P14G | 2.43
P14D | 2.52
P14N | 3.36
P14S | 2.71
P14F | 2.39
P14E | 2.13
P14A | 2.64
L24E | 2.33
L24C | 2.52
L24A | 1.71

Variant | protein stability index
L24Q | 2.02
L24K | 1.79
L24F | 2.15
L24R | 1.51
L24W | 2.03
L24N | 2.15
F3H | 1.83
F3V | 1.96
F3K | 1.88
F3D | 3.03
P23D | 1.33
P23G | 2.97
P23N | 2.09
P23L | 2.4
P23W | 2.27
P23Q | 2.63
H19L | 1.54
H19V | 2.8
H19M | 3.8
N17K | 1.27
N17E | 2.35
N17Q | 2.33
N17Y | 2.39
N17C | 3.44

Variant | protein stability index
N17R | 2.48
N17A | 1.98
N17H | 1.81
N17T | 2.19
N17D | 2.28
L1W | 3.02
L1E | 2.29
L1P | 2.26
L1M | 1.63
L1G | 2.63
L1Y | 1.93
L1S | 1.84
K20G | 1.99
K20V | 1.2
K20C | 2.2
K20I | 2.65
K20N | 2.58
R15Y | 3.31
R15F | 2.68
R15T | 2.55
R15L | 2.42
